In test [1] the target is T1, mouse FcRn (His-tagged, Sino Biological CT009-H08H) (mouse, UniProt Q61559 22-297).
T1 construct: also called mFcRn
T1 sequence (looked up): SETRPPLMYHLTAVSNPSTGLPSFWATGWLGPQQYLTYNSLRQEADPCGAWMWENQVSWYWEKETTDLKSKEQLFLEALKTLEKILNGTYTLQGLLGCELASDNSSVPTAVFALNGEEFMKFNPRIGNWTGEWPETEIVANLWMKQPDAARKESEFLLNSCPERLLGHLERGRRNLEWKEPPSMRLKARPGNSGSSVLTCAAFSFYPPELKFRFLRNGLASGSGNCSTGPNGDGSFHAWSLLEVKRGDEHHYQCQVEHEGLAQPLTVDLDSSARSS
Put plainly: BLI (Octet QK384): His-tagged mFcRn on anti-Penta-HIS biosensor, antibody as analyte, PBS pH 5.8, global 1:1 fit; experiment 2.

The target in test [2] is T2, mouse FcγRIIb (His-tagged, Sino Biological 50030-M08H) (mouse, UniProt P08101 30-217).
T2 construct: also called mFcγRIIb
T2 sequence (looked up): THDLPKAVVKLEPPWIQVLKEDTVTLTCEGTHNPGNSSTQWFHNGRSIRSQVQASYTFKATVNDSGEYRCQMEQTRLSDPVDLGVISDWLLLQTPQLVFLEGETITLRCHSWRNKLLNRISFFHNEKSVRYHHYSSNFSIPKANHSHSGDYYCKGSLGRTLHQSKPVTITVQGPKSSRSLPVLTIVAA
Put plainly: BLI summary table, mFcgRIIb, pH 7.2.

Test [3] addresses T2, mouse FcγRIIb (His-tagged, Sino …). The test can be described thus: BLI summary table, mFcgRIIb, pH 7.2. The source holds these as a separate data set.
The target in test [4] is T1, mouse FcRn (His-tagged, Sino Biological …). The test can be described thus: BLI summary table, mFcRn, pH 5.8.
The target in test [5] is T2, mouse FcγRIIb (His-tagged, Sino …). The test can be described thus: BLI summary table, mFcgRIIb, pH 7.2. The source holds these as a separate data set.
The target of test [6] is T3, mouse FcγRIII (His-tagged, Sino Biological 50326-M08H) (mouse, UniProt P08508 31-215).
T3 construct: also called mFcγRIII
T3 sequence (looked up): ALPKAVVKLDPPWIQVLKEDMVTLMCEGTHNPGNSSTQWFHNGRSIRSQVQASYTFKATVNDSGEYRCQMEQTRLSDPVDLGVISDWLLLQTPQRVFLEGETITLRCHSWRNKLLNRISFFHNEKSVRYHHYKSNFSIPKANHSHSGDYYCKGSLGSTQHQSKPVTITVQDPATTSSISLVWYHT
Put plainly: BLI summary table, mFcgRIII, pH 7.2.

Test [7] deals with T4, mouse FcγRIV (His-tagged, Sino Biological 50036-M08H) (mouse, UniProt A0A0B4J1G0 21-203).
T4 construct: also called mFcγRIV; not shown: the histidine tag (and any linker) of the Sino Biological construct 50036-M08H
T4 sequence: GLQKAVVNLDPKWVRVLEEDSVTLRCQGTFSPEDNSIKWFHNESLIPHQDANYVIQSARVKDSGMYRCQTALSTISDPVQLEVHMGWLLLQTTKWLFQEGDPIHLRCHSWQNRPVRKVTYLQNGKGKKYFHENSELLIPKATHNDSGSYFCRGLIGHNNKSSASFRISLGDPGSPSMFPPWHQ
The test can be described thus: BLI summary table, mFcgRIV, pH 7.2.

The target of test [8] is T1, mouse FcRn (His-tagged, Sino Biological …). The test can be described thus: BLI summary table, mFcRn, pH 5.8. This is another data set of the same source.
For test [9], the target named is T4, mouse FcγRIV (His-tagged, Sino …). The test can be described thus: BLI summary table, mFcgRIV, pH 7.2. The source holds these as a separate data set.
In test [10] the target is T2, mouse FcγRIIb (His-tagged, Sino …). Put plainly: BLI (Octet QK384): His-tagged receptor on anti-Penta-HIS biosensor, antibody as analyte, PBS pH 7.2, global 1:1 fit; experiment 2.
For test [11], the target named is T4, mouse FcγRIV (His-tagged, Sino …). Put plainly: BLI summary table, mFcgRIV, pH 7.2. This is another data set of the same source.
Test [12] addresses T3, mouse FcγRIII (His-tagged, Sino …). The test can be described thus: BLI summary table, mFcgRIII, pH 7.2. This is another data set of the same source.
The target in test [13] is T1, mouse FcRn (His-tagged, Sino Biological …). Put plainly: BLI summary table, mFcRn, pH 5.8. The source holds these as a separate data set.
Test [14] addresses T3, mouse FcγRIII (His-tagged, Sino …). Put plainly: BLI (Octet QK384): His-tagged receptor on anti-Penta-HIS biosensor, antibody as analyte, PBS pH 7.2, global 1:1 fit; experiment 2.
The target of test [15] is T4, mouse FcγRIV (His-tagged, Sino …). The description is as above.
The target in test [16] is T3, mouse FcγRIII (His-tagged, Sino …). Put plainly: BLI summary table, mFcgRIII, pH 7.2. The source holds these as a separate data set.
Test [17] deals with T2, mouse FcγRIIb (His-tagged, Sino …). Put plainly: BLI (Octet QK384): His-tagged receptor on anti-Penta-HIS biosensor, antibody as analyte, PBS pH 7.2, global 1:1 fit.
In test [18] the target is T3, mouse FcγRIII (His-tagged, Sino …). The description is as above.
Test [19] deals with T4, mouse FcγRIV (His-tagged, Sino …). Put plainly: BLI (Octet QK384): His-tagged receptor on anti-Penta-HIS biosensor, antibody as analyte, PBS pH 7.2.
The target in test [20] is T1, mouse FcRn (His-tagged, Sino Biological …). Put plainly: BLI (Octet QK384): His-tagged mFcRn on anti-Penta-HIS biosensor, antibody as analyte, PBS pH 5.8, global 1:1 fit.

Values joined by “and” are separate entries in the source; they are usually repeats but may differ in a detail not shown here. Equal entries are not always repeated.

B1: 4M2-C12 mIgG2a (antibody)
heavy: EVKLVESGPGLVKPSQSLSLTCTVTGYSITSDYAWNWIRQFPGNKLEWMGYITYSGNISYNPSLRSRISITRDTSKNQFFLQLNSVTPEDTATYSCARSLYYPWYFDVWGAGTTVTVSSAKTTAPSVYPLAPVCGDTTGSSVTLGCLVKGYFPEPVTLTWNSGSLSSGVHTFPAVLQSDLYTLSSSVTVTSSTWPSQSITCNVAHPASSTKVDKKIEPRGPTIKPCPPCKCPAPNLLGGPSVFIFPPKIKDVLMISLSPIVTCVVVDVSEDDPDVQISWFVNNVEVHTAQTQTHREDYNSTLRVVSALPIQHQDWMSGKEFKCKVNNKDLPAPIERTISKPKGSVRAPQVYVLPPPEEEMTKKQVTLTCMVTDFMPEDIYVEWTNNGKTELNYKNTEPVLDSDGSYFMYSKLRVEKKNWVERNSYSCSVVHEGLHNHHTTKSFSRTPGK
light: DIVITQTPAILSTSPGEKVTMTCRASSSVGYIHWYQQKPGSSPKPWIYATSNLASGVPARFSGSGSGTSNSLTITRVEAEDAATYYCQQWSSYPPITFGGGTKLEVKRADAAPTVSIFPPSSEQLTSGGASVVCFLNNFYPKDINVKWKIDGSERQNGVLNSWTDQDSKDSTYSMSSTLTLTKDEYERHNSYTCEATHKTSTSPIVKSFNRNEC
notes: mouse IgG2a format, made in CHO cells; also called 4M2-C12 IgG2a
For the molecule B1, the equilibrium dissociation constant (Kd) in test [1] is 49.6 nM; in test [2] it was 876 nM and 2190 nM; in [6] it was 794 nM and 977 nM; in test [7] it was 258 nM and 372 nM; in [8] it was 31.5 nM and 49.5 nM; in test [10], 2190 nM. The Kd in test [14] is 977 nM; in [15], 372 nM. In addition, the koff in [1] was 0.011 s⁻¹; in [5] it was 0.045 s⁻¹ and 0.12 s⁻¹; in test [9], 0.025 s⁻¹ and 0.034 s⁻¹; in test [10], 0.12 s⁻¹; in test [12], 0.044 s⁻¹ and 0.066 s⁻¹; in test [13], 0.0059 s⁻¹ and 0.011 s⁻¹. Besides, the koff stood at 0.066 s⁻¹ in test [14] and 0.034 s⁻¹ in [15]. In addition, the kon was 220000 M⁻¹ s⁻¹ in test [1]; 51000 M⁻¹ s⁻¹ and 55000 M⁻¹ s⁻¹ in [3]; 190000 M⁻¹ s⁻¹ and 220000 M⁻¹ s⁻¹ in test [4]; 55000 M⁻¹ s⁻¹ in [10]; 96000 M⁻¹ s⁻¹ and 92000 M⁻¹ s⁻¹ in test [11]; 67000 M⁻¹ s⁻¹ in [14]. Besides, the on-rate constant (kon) in test [15] was 92000 M⁻¹ s⁻¹; in test [16] it was 55000 M⁻¹ s⁻¹ and 67000 M⁻¹ s⁻¹.

B2: 4M2-C12 mIgG1 (antibody)
heavy chain: EVKLVESGPGLVKPSQSLSLTCTVTGYSITSDYAWNWIRQFPGNKLEWMGYITYSGNISYNPSLRSRISITRDTSKNQFFLQLNSVTPEDTATYSCARSLYYPWYFDVWGAGTTVTVSSAKTTPPSVYPLAPGSAAQTNSMVTLGCLVKGYFPEPVTVTWNSGSLSSGVHTFPAVLQSDLYTLSSSVTVPSSTWPSETVTCNVAHPASSTKVDKKIVPRDCGCKPCICTVPEVSSVFIFPPKPKDVLTITLTPKVTCVVVDISKDDPEVQFSWFVDDVEVHTAQTQPREEQFNSTFRSVSELPIMHQDWLNGKEFKCRVNSAAFPAPIEKTISKTKGRPKAPQVYTIPPPKEQMAKDKVSLTCMITDFFPEDITVEWQWNGQPAENYKNTQPIMNTNGSYFVYSKLNVQKSNWEAGNTFTCSVLHEGLHNHHTEKSLSHSPGK
light chain: B1 light
For the molecule B2, the Kd in [2] was found to be 1300 nM; in test [6], 455 nM; in test [8], 93.9 nM; in [17], 1300 nM; in test [18], 455 nM; in test [20], 93.9 nM. The on-rate (kon) in [3] came to 90000 M⁻¹ s⁻¹; in test [4] it was 170000 M⁻¹ s⁻¹; in [17], 90000 M⁻¹ s⁻¹; in [18] it was 270000 M⁻¹ s⁻¹; in test [20], 170000 M⁻¹ s⁻¹; in test [16] it was 270000 M⁻¹ s⁻¹. Moreover, the off-rate (koff) came to 0.117 s⁻¹ in test [5]; 0.117 s⁻¹ in [17]; 0.125 s⁻¹ in test [12]; 0.125 s⁻¹ in test [18]; 0.016 s⁻¹ in test [13]; 0.016 s⁻¹ in test [20]. In addition, the binding result in test [19] is “no binding”.

The values above are taken from patent publication US20250313631A1 (HUMMINGBIRD BIOSCIENCE PTE, published 2025).
